Literature values, collected in publication PMC6105697.

Molecular target: NKG2D (Homo sapiens) (UniProt P26718)
Test: surface plasmon resonance

UniProt P26718, sequence (P26718 whole entry): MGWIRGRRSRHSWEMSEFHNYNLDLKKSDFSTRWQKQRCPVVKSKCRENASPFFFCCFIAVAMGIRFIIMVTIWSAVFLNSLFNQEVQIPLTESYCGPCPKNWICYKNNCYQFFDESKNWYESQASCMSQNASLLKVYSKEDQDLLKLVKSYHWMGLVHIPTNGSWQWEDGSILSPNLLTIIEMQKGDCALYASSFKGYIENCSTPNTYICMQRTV

Kd: 0.0155 µM
Substance: ULBP0602 (from UniProt Q5VY80)
